# The nanobody polyreactivity screen of Harvey et al. (2022)
# Assay: yeast display, Sf9 membrane polyspecificity reagent, FACS + sequencing; frameworks hold sequencing errors
# In short: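 Synthetic nanobody libraries on Saccharomyces cerevisiae BJ5465 were galactose-induced for 36–48 hours, stained 1 hour at 4 °C with 10% biotinylated, detergent-solubilized Sf9 membrane reagent and enriched on streptavidin microbeads. FACS then separated cells into low and high (top ~1%) gates by anti-HA (expression) and streptavidin (reagent binding) fluorescence. Genes were colony-PCR amplified, MiSeq 2 × 250 sequenced and CDR-length filtered. A clone's polyreactivity label is that of its gate of origin.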
row,Sequence,polyreactivity (PSR sort gate)
1,QVQLVESGGGLVQAGGSLRLSCAASGSISQTYAMGWYRQAPGKERELVAAISSSGASTYYADSVKGRFTISRDNAKNTVYLQMNSLKPEDTAVYYCAVVPSSTYHSYDYWGQGTQVTVSS,high polyreactivity
2,QVQLVESGGGLVQAGGSLRLSCAASGGTFWVYAMGWYRQAPGKERELVAAIRWRGGRTYYADSVKGRFTISRDNAKNTVYLQMNSLKPEDTAVYYCAATTWRSGRYNYWGQGTQVTVSA,high polyreactivity
3,QVQLVESGGGLVQAGGSLRLSCAASGFTFYPYSMGWYRQAPGKERELVAAITRGGSTYYADSVKGRFTISRDNAKNTVFLQMNSLKPEDTAVYYCNAYWQGYGYYYWGQGTQVTVSS,low polyreactivity
4,QVQLVESWGGLVQAGGSLRLSCAASGSIFSYYGMGRYRQARGKERELVAAITRSTGSTYYADSVKGRFTISRDNAKNTVYLQMNSLKPEDTAVYYCATDYVVLWEFDYWGQGTQVTVSS,low polyreactivity
5,QVQRVESGGGLVQAGGSLRLSCAASGRIFSANAMGWYRQAPGKERELVATISTGGGRTYYADSVKGRFTISRDNAKNTVYLQMNSLKPEDTAVYYCNATRNYARVRYYYWGQGTQVTVSS,high polyreactivity
6,QVQLVESGGGLVQAGGSLRLSCAASGSISGSNDMGWYRQAPGKERELVAAISGGSSTNYADSVKGRFTISRDNAKNTVYFQMNSLKPEDTAVYYCAARYRWFFFYGPHSPGYNYWGQGTQVTVSS,high polyreactivity
7,QVQLVESGGGLVQAGGILRLSCAASGSIFSQYAMGWYRQAPGKERELVATISWNGGRTYYADSVKGRFTISRDNAKNTVYLELNSLKPEDTAVYYCAARYGGVPYYYWGQGTQVTVSS,high polyreactivity
8,QVQLVESGGGLVQAGGSLRLSCAASGFTFGRYAMGWYRQAPGKERELVAAISWSGTRTYYADSVKGRFTISRDNAKNTVYLQLNSLKPEDTADYYCAAYPPPWAQTGFYTYDYWGQGTQVTVSS,high polyreactivity
9,QVQLVESGGGLVQAGGSLRLSCAASGSIFRSYAMGWYRQAPGKERELVAAISRRGGSTYYADSVKGRFTISRDNAKNTVYLQMNSLKPADTGVYYCAAVRYNSRVSTTPSDMYYWGQGTQVTVSS,low polyreactivity
10,QVQLVESGGGLVQAGGSLRLSCAASGSTIYDNAMGWSRQAPGKERELVAAITWSVGRTYYADSVKGRFTISRDNAKNTVYLQMNSLKPEDTAVYYCAARYQYYSTYGVTLDYWGQGTQVTVSS,low polyreactivity
11,QVQLVESGGGLVQAGGSLRLSCSASGSTFGQYAMGWYRHAPGKERELVAAISRGGGSTYYADSVKGRFTISRDNAKYTVYLQMNSLKPEDTAVYYCNALSARSYYWGQGTQVTVSS,high polyreactivity
12,QVQLVESGGGLVQAGGSLRLSCAASGFIFLWYAMGWYRQAPGKERELVAAISSGGGRTHYADSVKGRFTISRDNAKNTVYLQMNSLKPEDTAVYYCAAALRGQASRFDYWGQGTKVTVSS,high polyreactivity
13,QVQLVESGGGLVQAGGSLRFSCAASGLTFNHNAMGWYRQAPGKERELVAAISRRGGSTYYADSVKGRFTISRDNAKNTVYVQMNSLKPEDTAVYYCNKDFPTLYSRGRYIYWGQGTQVTVSS,high polyreactivity
14,QVQLVESVGGLVQAGGSLRLSCAASGSIFRVYAMGWYRQAPGKERELVATISGSAGRTYYADSVKGRFTISRDNAKNTVYLQMNSLKPEDTAVYYCAARWYKEYYWGQGTQVTVSS,high polyreactivity
15,QVQLVESGGGLVQAGGSLRLSCAASGIIFSGYAMGWYRQAPGKERELVAAITGSGDITYYADSVKGRFTISRDNAKNTVYLQMNSLKPEDTAVYYCADVASSQYRAEEYNYWGQGTQVTVSS,low polyreactivity
16,QVQLVESGGGLVQAGGSLRLSSAASGSTSRYYDMGWYRQSPGKVRELVAAITWSGGTTYYADSVKGRFTISRDNAKNTVYLQMNSLKPDDPAVYYCAADASYTYYEFVYWGQGTQVTVSS,low polyreactivity
17,QVQLVESGGGLVQAGGSLRLSCAASGRIFISNAKGWYRQAPGKERELVAAITWIGDRTYYADSVKGRFTISRDNAKNTVYLQMNSLKPEDTAVYYCNRVTSRVSGRYSYDYWGQGTQVTVSS,high polyreactivity
18,QVQLVESGGGLVQAGGSLRLSCAASGRIFSYNAMGWYRQAPGKERELDAAISWSTGSTFYADSVKGRFTISRDNAKNTVYLQMNSLKPEDTAVYYCAREYYYRRGFFLRGYWGQGTQVTVSS,high polyreactivity
19,QVQLVESGGGLVQAGGSLRLSCAASGFTFYRYAMGWYRPAPGKERELVAAISSTGDRTYYADSVKGRFTISRDNAKNTVYLQMNSLKPEDTAVYYCAAPYQNQVEFNYWGQGTQVTVSS,high polyreactivity
20,QVQLVESGGGLVQAGGSLRLSCAASGRTFGYYGMGWYRQAPGKERELVAAIRRRSGSTYYADSVKGRFTISRDNSKNTFYLQMNSLKPEDTAVYYCNQIRVSNFDYWGQGTQVTVSS,high polyreactivity
21,QVQLEESGGGLVQAGGSLRISCAASGSTYYNYAMGWYRQAPGKERELVAAISRSGITYYADSVKGRFTISRDNAKNTVYLQMNSLKPEDTAVYYCAAGRRFDQSMYYWGQGTQVTVSS,high polyreactivity
22,QDQLVESVGGLVQAGGSLRLSCAASGRIFWVNAMGWSRQAPGKERELVAAISWTSGSTYYADSVKGRFTISRDNAKNTVYLQMNSLKPEDTAVYYCNKVQSGEYDYWGQGTQVTVSS,high polyreactivity

row,Sequence,polyreactivity (PSR sort gate)
1,QVQLVESGGGLVEAGGSLRLTCAASGSIFTYYAMGWFRPAPGKERELVADITKSGGRTYYADSVKGRFTISRDNAKNTVYLQMYSLKPEDTAVYYCAAYRRNSRWELDYWGHGTQVTVSS,high polyreactivity
2,QVQLVESGGGLVQAGGSLRLSCAASGLTLETIAMGGYRQAPGKERELVAGITYSGGTTYYADSVKGRFTISRDNAKNTVYLQMNSLKPEDTAVFYCAAHTRTSGHIYWGQGTQVTVSS,low polyreactivity
3,QVQLVESGGGLVQAGGSLRLSCAASGFTFTKNTMGWYRQAPGKERELVAAITKSGGRTYYADSVKGRFTISRDNAKNTVYLQMNSLKPEDTAVYYCAADYVRNNYPYGYWGQGTQVTVSS,high polyreactivity
4,QVQLVESGGGLVQAGGSLRLSCAASGSTFKPNAMGSYRQAPGKEREFVASITWSAGSTYYADSVKGRFTISRDNAKNTVYLQMNSLKPEDTAVYYCAARLRWAGISRYGYWGQGTQVTVSS,high polyreactivity
5,QVQLVESGGGLVQAGGSLRLSCAPTGFTIGWYAMGWYRQAPGKERELVATISWSGSSTYYADSVKGRFTISRDNAKNTVYLQMNSLKPEDTAVYYCNAVYGRFVVLRYDYWAQGTQVTVSS,high polyreactivity
6,QVQLVESGGGLVQAGGSLRLSCAASGRTFSKYVMGWYRQAPGKERELVATITSGGSTYYADSVKGRFTISRDNAKNTVYLQMNSLKPEDTAVYYCAARIWYYNYWGQGTQVTVSS,high polyreactivity
7,QVQLVESGGGLVQAGGSLRLSCAASGFIFASNAMGWYRQAPGKERELVASISRSGGNTYYADSVKGRFTISRDNAKNTVYLQMNSLKPEDTAVYYCAAEYIFHYYDIFDYWGQGTQVTVSS,high polyreactivity
8,QVQLVESGGGLVQAGGSLRLSCAASGRTFATNTMGWSRQAPGKERELVAAITFSGGSTYYADSVKGRFTISRDNAKNTVYLQMNSLKPEDTAVYYCNVRSPYYSYRYRYGYWGQGTQVTVSS,high polyreactivity
9,QVQLVESGGGLVQAGGSLRLSCAASGLIFLYNAMGWYRQAPGKERELVAAISRSGGSTYYADSVKGRFTISRDNAKNTVYLQMNSLKPEDTAVYYCNARWPLGVSRGGMGYWGQGTQVTVSS,high polyreactivity
10,QVQLVESGGGLVQAGGSLRLSCAASGITFYPNDMGWYRQAPGKERELVAAITTNDGDTYYADSVKGRFTISRDKAKNTVYLQMNSLKPEDTAVYYCAAASGSTSEYEYWGQGTQVTVSS,low polyreactivity
11,QVQLVESGGGLVQAGGSLRLSCAASVLILYYYAMGWYRQAPGKERELVAAISRRDGDTYYADSVKGRFTISRDNAKNTVYLQMNSLKPEDTAVYYCAADRRWSWVFRDDYWGQGTQVTVSS,low polyreactivity
12,QVQLVESAAGLVQAGGSLRLSCAASGSTFYRYEMGWYRQAPGKERELVATNTSGGSSTYYADSVKGRFTISRDNAKNTVYLQMNSLKPEDTAVYYCAKVYTYSGVNLSSISTPYGYWGQGTQVTVSS,high polyreactivity
13,QVQLVESGGGLVQAGGSLRLSCAASGRIFDPYAMGWYRQAPGKERELVASISWSGGRTYYADSVKGRFTISRDNAKNTVYLQMNSLKPEDTAVYYCAARQWYRYKVRFDYWGQGTQVTVSS,high polyreactivity
14,QDQIVESGGGLVQAGGSLRLTCAASGLNIYDNMGWYRQAPGKERELVAAISSSGGSTSYADSVKGRFTISRDNAKNTFYVQMNSLKPEDTAVYYCAADSYPAYLGFVGFDYWGQGTQVTVSS,low polyreactivity
15,QVQLVESGGGLVQAGGSLRLSCAASGSIFYLYAMGWYRQAPGKERELVAAITSIGGSTYADSVKGRFTISRDNAKNTVYLQMNSLKPEDTAVYYCNADGLYEKWGPWTVPYYYWGQGTQVTVSS,low polyreactivity
16,QVQLVESGGGLVQAGGSLRLSCADSGFTFIKYAMGWYRQAPGKEREFVATISWNGGNTYYADSVKGRFTISRDNAKNTVYLQMNSLKPEDTAVYYCAARVKYRTRGGTVVSYDYWGQGPQVTVSS,high polyreactivity
17,QVQLVESGGGLVQAGGSLRLSCAASGRIFGFNTMGWYRQAPGKERELVAAITSGGSTYADSVKGRFTISRDNAKNTVYLQMNSLKPEDTAVYYCNTRFYRPLWGYNYWGQGTQVTVSS,low polyreactivity
18,QVQLVESGGGLVQARGSLRLSCAASGSTFIPNTMGWSRQAPGKERELVAAISRRGGSKNYADSVKGRFTISRDNAKNTVYLQMNSLNPEDTAVYYCAAASPRRYRYDYWGQGTQVTVSS,high polyreactivity
19,QVQLVESGGGLVQAGGSLRLSCAASGFTSAPYAMGWNRQAPGKERELVAAISSGDTTSYADSVKGRFTISRDNEKNTVYFQMNSLKPEDTAVYYCAAVYFNVIESYKTAGYDYWGQGTQVTVSS,low polyreactivity
20,QVQLVESGGGLVQAGGSLRLSCAASGFTFLYNAMGWYRQAPVKERELVASINSGGSTNYADSVKGRFTISRDNAKNTVYLQMNSLKPEDTAVYYCNAKRHVRKGDYWGLGTQVTVSS,low polyreactivity
21,QVLVVESGGCLVQAVGSLRLSCAAYGITCSRNALGWYRLAAGKERELVATITSGGSTNYADSVKGRFTISRDNAKNTVYLQMMSLKPEDPAVYFCNAVWNTFISGRSYDYWGQVTQVTVSS,low polyreactivity
